B1: library; a variant is named by its letters at N, in order (parent)
chain: GCUGUCACCGAGAAACUGUGAAGUAUAUCUUAAACCUGGGCACUUAAAAGAUAUAUGGAGUUAGUAGUGCAACCUGCUCGGUCUGAUGAGUCCNNNNNNGGACGAAACAGC

In data set [1] the parent is B1. Kind of data set: normalized RNA/DNA level without ligand (relative to sTRSVctl = 100) (log10 (% of sTRSVctl)); HEK293T; ligand: cyclic di-GMP (c-di-GMP-II aptamer); higher = less ribozyme self-cleavage, higher mRNA level. The following applies: reporter: mCherry (pCS4076), ligand present: no. In outline: (§1)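 Library plasmids carrying ribozyme switches linked to mCherry, or to eGFP in some ligand experiments, were transfected into HEK293T at 4 µg per 6-well well, with any ligand added 1 h earlier. Seventy-two hours on, total RNA was extracted with EDTA and reverse-transcribed, amplified, barcoded and sequenced. RNA level was RNA over DNA reads normalized to a spiked-in non-cleaving sequence or to the top sequences, then scaled and log-transformed. The top set was 25 sequences, the transform was ×100 and log10, and sequences needed ≥100 DNA reads.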

Data set [2] covers variants of B1. Kind of data set: normalized RNA/DNA level with ligand (relative to sTRSVctl = 100) (log10 (% of sTRSVctl)); HEK293T; ligand: cyclic di-GMP (c-di-GMP-II aptamer); ligand concentration (+) RNA-Seq: 1 mM; higher = less ribozyme self-cleavage, higher mRNA level. To be noted: reporter: mCherry (pCS4076), ligand present: yes. The procedure, abridged:
as §1

The values that follow come from the supplement of paper PMC6757056.

± gives the standard deviation of the averaged measurements.

Turning to GCUGUCACCGAGAAACUGUGAAGUAUAUCUUAAACCUGGGCACUUAAAAGAUAUAUGGAGUUAGUAGUGCAACCUGCUCGGUCUGAUGAGUCCACGCGAGGACGAAACAGC [ACGCGA], in data set [1], the “normalized RNA/DNA level without ligand (log10)” value was 1.4 ± 0.11. In addition, the “normalized RNA/DNA level with ligand (log10)” value in data set [2] came to 1.62 ± 0.11.
As for GCUGUCACCGAGAAACUGUGAAGUAUAUCUUAAACCUGGGCACUUAAAAGAUAUAUGGAGUUAGUAGUGCAACCUGCUCGGUCUGAUGAGUCCACGCGCGGACGAAACAGC [ACGCGC], the “normalized RNA/DNA level without ligand (log10)” value in data set [1] was found to be 1.629 ± 0.016. Moreover, in data set [2], the “normalized RNA/DNA level with ligand (log10)” value turned out to be 1.79 ± 0.11.
Take GCUGUCACCGAGAAACUGUGAAGUAUAUCUUAAACCUGGGCACUUAAAAGAUAUAUGGAGUUAGUAGUGCAACCUGCUCGGUCUGAUGAGUCCACGCGUGGACGAAACAGC [ACGCGU]: the “normalized RNA/DNA level without ligand (log10)” value in data set [1] came out at 1.504 ± 0.0098. The “normalized RNA/DNA level with ligand (log10)” value in data set [2] is 1.71 ± 0.14.
In the case of GCUGUCACCGAGAAACUGUGAAGUAUAUCUUAAACCUGGGCACUUAAAAGAUAUAUGGAGUUAGUAGUGCAACCUGCUCGGUCUGAUGAGUCCCCGCUAGGACGAAACAGC [CCGCUA], in data set [1], the “normalized RNA/DNA level without ligand (log10)” value was determined as 1.43 ± 0.078. Moreover, in data set [2], the “normalized RNA/DNA level with ligand (log10)” value was 1.68 ± 0.091.
Taken in the same sequence, the figures for GCUGUCACCGAGAAACUGUGAAGUAUAUCUUAAACCUGGGCACUUAAAAGAUAUAUGGAGUUAGUAGUGCAACCUGCUCGGUCUGAUGAGUCCUCGCCUGGACGAAACAGC [UCGCCU] were 1.76 ± 0.029 and 1.92 ± 0.12.
Taken in the same sequence, the figures for GCUGUCACCGAGAAACUGUGAAGUAUAUCUUAAACCUGGGCACUUAAAAGAUAUAUGGAGUUAGUAGUGCAACCUGCUCGGUCUGAUGAGUCCUCGCCGGGACGAAACAGC [UCGCCG] were 1.81 ± 0.091 and 1.95 ± 0.14.
For the variant GCUGUCACCGAGAAACUGUGAAGUAUAUCUUAAACCUGGGCACUUAAAAGAUAUAUGGAGUUAGUAGUGCAACCUGCUCGGUCUGAUGAGUCCCCGCCUGGACGAAACAGC [CCGCCU], the “normalized RNA/DNA level without ligand (log10)” value in data set [1] is 1.7 ± 0.0065. Moreover, the “normalized RNA/DNA level with ligand (log10)” value in data set [2] came to 1.84 ± 0.099.
For the variant GCUGUCACCGAGAAACUGUGAAGUAUAUCUUAAACCUGGGCACUUAAAAGAUAUAUGGAGUUAGUAGUGCAACCUGCUCGGUCUGAUGAGUCCCCGCCGGGACGAAACAGC [CCGCCG], in data set [1], the “normalized RNA/DNA level without ligand (log10)” value amounted to 1.738 ± 0.01. Further, the “normalized RNA/DNA level with ligand (log10)” value in data set [2] is 1.82 ± 0.1.
As for GCUGUCACCGAGAAACUGUGAAGUAUAUCUUAAACCUGGGCACUUAAAAGAUAUAUGGAGUUAGUAGUGCAACCUGCUCGGUCUGAUGAGUCCACGCCUGGACGAAACAGC [ACGCCU], the “normalized RNA/DNA level without ligand (log10)” value in data set [1] stood at 1.64 ± 0.099. Moreover, the “normalized RNA/DNA level with ligand (log10)” value in data set [2] turned out to be 1.8 ± 0.036.
Consider GCUGUCACCGAGAAACUGUGAAGUAUAUCUUAAACCUGGGCACUUAAAAGAUAUAUGGAGUUAGUAGUGCAACCUGCUCGGUCUGAUGAGUCCACGCCGGGACGAAACAGC [ACGCCG], for which the “normalized RNA/DNA level without ligand (log10)” value in data set [1] was 1.74 ± 0.046. Moreover, the “normalized RNA/DNA level with ligand (log10)” value in data set [2] came out at 1.85 ± 0.067.
As to GCUGUCACCGAGAAACUGUGAAGUAUAUCUUAAACCUGGGCACUUAAAAGAUAUAUGGAGUUAGUAGUGCAACCUGCUCGGUCUGAUGAGUCCACGCCAGGACGAAACAGC [ACGCCA], the “normalized RNA/DNA level without ligand (log10)” value in data set [1] was 1.675 ± 0.012. Also, the “normalized RNA/DNA level with ligand (log10)” value in data set [2] was determined as 1.87 ± 0.09.
Turning to GCUGUCACCGAGAAACUGUGAAGUAUAUCUUAAACCUGGGCACUUAAAAGAUAUAUGGAGUUAGUAGUGCAACCUGCUCGGUCUGAUGAGUCCUCGCGCGGACGAAACAGC [UCGCGC], the “normalized RNA/DNA level without ligand (log10)” value in data set [1] was 1.73 ± 0.029. Moreover, the “normalized RNA/DNA level with ligand (log10)” value in data set [2] is 1.89 ± 0.093.
Consider GCUGUCACCGAGAAACUGUGAAGUAUAUCUUAAACCUGGGCACUUAAAAGAUAUAUGGAGUUAGUAGUGCAACCUGCUCGGUCUGAUGAGUCCUCGCGUGGACGAAACAGC [UCGCGU], for which the “normalized RNA/DNA level without ligand (log10)” value in data set [1] turned out to be 1.66 ± 0.083. In addition, in data set [2], the “normalized RNA/DNA level with ligand (log10)” value worked out at 1.84 ± 0.089.
For GCUGUCACCGAGAAACUGUGAAGUAUAUCUUAAACCUGGGCACUUAAAAGAUAUAUGGAGUUAGUAGUGCAACCUGCUCGGUCUGAUGAGUCCUCGCGGGGACGAAACAGC [UCGCGG] the same measures were 1.78 ± 0.051 and 1.85 ± 0.14.
Taken in the same sequence, the figures for GCUGUCACCGAGAAACUGUGAAGUAUAUCUUAAACCUGGGCACUUAAAAGAUAUAUGGAGUUAGUAGUGCAACCUGCUCGGUCUGAUGAGUCCGCGCCGGGACGAAACAGC [GCGCCG] were 1.781 ± 0.0019 and 1.9 ± 0.1.
As for GCUGUCACCGAGAAACUGUGAAGUAUAUCUUAAACCUGGGCACUUAAAAGAUAUAUGGAGUUAGUAGUGCAACCUGCUCGGUCUGAUGAGUCCGCGCCCGGACGAAACAGC [GCGCCC], the “normalized RNA/DNA level without ligand (log10)” value in data set [1] turned out to be 1.79 ± 0.025. For the same variant, the “normalized RNA/DNA level with ligand (log10)” value in data set [2] was 1.89 ± 0.038.
For GCUGUCACCGAGAAACUGUGAAGUAUAUCUUAAACCUGGGCACUUAAAAGAUAUAUGGAGUUAGUAGUGCAACCUGCUCGGUCUGAUGAGUCCGCGCCUGGACGAAACAGC [GCGCCU] the same measures were 1.774 ± 0.0061 and 1.88 ± 0.083.
As to GCUGUCACCGAGAAACUGUGAAGUAUAUCUUAAACCUGGGCACUUAAAAGAUAUAUGGAGUUAGUAGUGCAACCUGCUCGGUCUGAUGAGUCCGCGCGCGGACGAAACAGC [GCGCGC], the “normalized RNA/DNA level without ligand (log10)” value in data set [1] was 1.64 ± 0.07. Besides, the “normalized RNA/DNA level with ligand (log10)” value in data set [2] was determined as 1.8 ± 0.11.
Regarding GCUGUCACCGAGAAACUGUGAAGUAUAUCUUAAACCUGGGCACUUAAAAGAUAUAUGGAGUUAGUAGUGCAACCUGCUCGGUCUGAUGAGUCCGCGCGGGGACGAAACAGC [GCGCGG], the “normalized RNA/DNA level without ligand (log10)” value in data set [1] was 1.796 ± 0.0029. Besides, the “normalized RNA/DNA level with ligand (log10)” value in data set [2] came to 1.87 ± 0.087.
Turning to GCUGUCACCGAGAAACUGUGAAGUAUAUCUUAAACCUGGGCACUUAAAAGAUAUAUGGAGUUAGUAGUGCAACCUGCUCGGUCUGAUGAGUCCGCGCGUGGACGAAACAGC [GCGCGU], the “normalized RNA/DNA level without ligand (log10)” value in data set [1] is 1.59 ± 0.1. The “normalized RNA/DNA level with ligand (log10)” value in data set [2] worked out at 1.75 ± 0.044.
As to GCUGUCACCGAGAAACUGUGAAGUAUAUCUUAAACCUGGGCACUUAAAAGAUAUAUGGAGUUAGUAGUGCAACCUGCUCGGUCUGAUGAGUCCACGCUAGGACGAAACAGC [ACGCUA], the “normalized RNA/DNA level without ligand (log10)” value in data set [1] came to 1.53 ± 0.026. In data set [2], the “normalized RNA/DNA level with ligand (log10)” value came out at 1.72 ± 0.13.
As for GCUGUCACCGAGAAACUGUGAAGUAUAUCUUAAACCUGGGCACUUAAAAGAUAUAUGGAGUUAGUAGUGCAACCUGCUCGGUCUGAUGAGUCCUCGCUAGGACGAAACAGC [UCGCUA], the “normalized RNA/DNA level without ligand (log10)” value in data set [1] is 1.46 ± 0.026. The “normalized RNA/DNA level with ligand (log10)” value in data set [2] was 1.7 ± 0.047.
Consider GCUGUCACCGAGAAACUGUGAAGUAUAUCUUAAACCUGGGCACUUAAAAGAUAUAUGGAGUUAGUAGUGCAACCUGCUCGGUCUGAUGAGUCCCCGCGAGGACGAAACAGC [CCGCGA], for which the “normalized RNA/DNA level without ligand (log10)” value in data set [1] was found to be 1.59 ± 0.053. The “normalized RNA/DNA level with ligand (log10)” value in data set [2] was found to be 1.76 ± 0.07.
Regarding GCUGUCACCGAGAAACUGUGAAGUAUAUCUUAAACCUGGGCACUUAAAAGAUAUAUGGAGUUAGUAGUGCAACCUGCUCGGUCUGAUGAGUCCCCGCGGGGACGAAACAGC [CCGCGG], the “normalized RNA/DNA level without ligand (log10)” value in data set [1] was 1.73 ± 0.044. In data set [2], the “normalized RNA/DNA level with ligand (log10)” value was found to be 1.85 ± 0.056.
For GCUGUCACCGAGAAACUGUGAAGUAUAUCUUAAACCUGGGCACUUAAAAGAUAUAUGGAGUUAGUAGUGCAACCUGCUCGGUCUGAUGAGUCCCCGCGUGGACGAAACAGC [CCGCGU], the “normalized RNA/DNA level without ligand (log10)” value in data set [1] came to 1.69 ± 0.02. For the same variant, the “normalized RNA/DNA level with ligand (log10)” value in data set [2] worked out at 1.84 ± 0.17.
Regarding GCUGUCACCGAGAAACUGUGAAGUAUAUCUUAAACCUGGGCACUUAAAAGAUAUAUGGAGUUAGUAGUGCAACCUGCUCGGUCUGAUGAGUCCCCGCGCGGACGAAACAGC [CCGCGC], in data set [1], the “normalized RNA/DNA level without ligand (log10)” value worked out at 1.74 ± 0.026. For the same variant, in data set [2], the “normalized RNA/DNA level with ligand (log10)” value is 1.87 ± 0.098.
